Values quoted from earlier work in paper PMC3982939.

Key:
[1] = biological target: uroguanylin (Homo sapiens) (UniProt Q16661)
guanylin (Homo sapiens) = guanylin (Homo sapiens) (UniProt Q02747)

Kd [1]: 1 nM
Kd (guanylin (Homo sapiens)): 10 nM
Substance: Guanylyl cyclase C ECD (from UniProt P25092)
